test: soluble on expression in E. coli; label from the status in PepcDB or PDB records

Soluble on expression in E. coli, not soluble:
MAHHHHHHMEDDFHVDEEYIKQLSEKYKNAEHPLFMDELPANIEENEDLHALYNLMIDDEDELSLAKNFKQVGNDYYQDGTKYFEDAIISYTKGIDILTKYWEDKNLEKRKAERGKLRNDSNSSPTEGTKSNAQNVSSQRISNGVSIENGESTAGEEAGKPAVKGDSTSSRKGTEITVLNGLHNEGGHRDDLRDNEIRGVLADLHCNRAIVHYKKKRYVKCLQDCRKAYAFNQTKFKSVYYSILCSYHLELYKDAHMYVNRFEDMTKSIDLKNHINLNEYEKMKEIIFKKDEDILERKKVDQNEKRKAEENEKNVANLVQDILHKRNIQMVENVYQQGNNVIPVLYVDTSMYIHFTVFLLYFERAIMETIIDFAENQSIMDHYDIVKKNKNNHLLFCYIEFPYDVFFMIHSSSYICDVLNRAKLFSPILSIHIIENEEANRQFRSGKTIKSIPL
MGSDKIHHHHHHMQEDISRKSPMLSNIKSWYRRRIIENHSVPDDIWQNAIARLRFLQALEAVELERLRECVVLFLHVKQISGAHGLVITDEMRVLIAAQACILILNLDLDYYDGWVEIIVYPGEFIRDYEYVDEDGIVHHAVEPASGESWLGGPVILSWEDAVAAVSGTEISQGYNVVIHEFAHKLDMLNGEANGFPPIHPDMSRQAWSEAFSKAYADFCRSIDAGEMMEIDLYAAESPAEFFAVISEAFFEMPISVRIHFPAVYEQLALFYRQDPAQRRSEP
MERVTVRMARSDRRTPWGFGVTEAPDGAVLIVNVIGGSLADRAGLRNGDVVDRLEDLDNLDINAVDRLLVTAHEKIELIVTRQPSGAATRIWRPEVTENTGPGQDQTPYRVNLQHSSDTRPPQGFNNSALPFETDQRVKHMQYNSPLGIYSDKSAAEQYVQQTQGLGDNSGARAAAQRQDEPAYLRSETLRLLKEQEHGSAGGAGTTLSNHPNPSGLPVCFMCTRPILGVMARAAGKNLHGDCLSCATCGNSLRNVGHHFIEDKFYCDIHGTQRKHGGRPGMDPNIFVKSSPTAAQPVHIQDSPRAAYHPQVNTARPVSVSPAPSAGSKTVTTHYHTPKTQGILSPGQRGVPTAAFGADLSKSVTYGGGVGPGGTHYDSNRLSPAPSQYSTQSRNQSQQHYQQHVVQAPPPVPSNPPPSNEQQSQSRVQNLPDSVRSAVSPRRSGKSPRQWPPPAMPTTNRYWQIDPADALKKEKVNYGEDLVALIKEVEQSKEKEPKVKKEPKKGTRGARRASNISKEQVQQAFEEQRKRTERKEIKKLEKEIKPKPELKVEVPVEPLVVPTSKPLEEPCPEALPPPKINDGIHWTVIHSPVLRSPSPAKVTSEAAIPESNGVVKPIPSYASQPIGISKTSTPQPFRPGSQVERPHYSSVGLKDVHAPVPLPRSPQHSPQPVQSYIVRSSDANVTTSTNLQTTVTRQYTENDNKSQFLQQPHPDTIDSSTSPIPTIRLNRHTKPEPSTPLSVPTVSINDIATSPIKITEPSRPWRASVSNSATSPIKIHESRVQPVDESRGLHRHEEKAQIETSTIKIHEPSSPPPSVHKFGAVNTRAAPAPVQFMQTPRIAVKIHEPTGPSPTPPSTPSHPIKRDPKHFKKVDFSKTSPTVIPEWKDSADIVDESDILTECSREDDSISFLKAATYDGDESEMIDNNIDNKSDITSTFDIEEEEVDVVQDRERIRVVGRKGGEGGEAEKQWRQRAMELLDDDAQTERDLRIVAALNERLQGLREMEDDDRVRAIECIARHQSELEQTQTQLSTLLESAIVYLQNLRPELELTEPIDNDAKSLETVKFEPTRAEQRVNEIRKKVLEDLEHLPILGDGMDSVPPPPPERKVFPFQSYQPIAPQFPVPAAESPVTQSLHDVLDEFYSLRKPTPTQNVAQSSDTTAEDSRNFLASRLGQVMIDENKKAGGSNGSSQHHNQQGSSYTKTSFERTTTETRPQQNTGAPRAGDFRGTGHLTTTTTTQQNGGRAPFCESCKQQIRGAFVLATGKSWCPEHFVCANSSCRRRLLECGFVEEDGQKFCESCFEQHIAPRCNKCSKPIISDCLNALQKKWHPTCFTCAHCQKPFGNSAFYLEQGLPYCEQDWNALFTTKCVSCRYPIEAGDRWVEALGNAFHSNCFTCARCNHNLEGESFFAKNGQPFCRLHA
MIELVIVSRLLEYPDAALWQHQQEMFEAIAASKNLPKEDAHALGIFLRDLTTMDPLDAQAQYSELFDRGRATSLLLFEHVHGESRDRGQAMVDLLAQYEQHGLQLNSRELPDHLPLYLEYLAQLPQSEAVEGLKDIAPILALLSARLQQRESRYAVLFDLLLKLANTAIDSDKVAEKIADEARDDTPQALDAVWEEEQVKFFADKGCGDSAITAHQRRFAGAVAPQYLNITTGGQH
MEERILFSQKTTIFVPVDNDSRIKPMSKDSLCAQHTDCSGCPKAMESTLIHRNLLRGQHIPKDKCTQNCMLFMIEGELLINSDEHPGTTLHEKQFILQAIGSKYEILALTDVSYILFWFNELPLLCENRYREIIDQAEGPLTYTPMVMNPRLFYLINDVAAYLDESTPACGKYIDLKCQEMVYMITNYYPLPQLRAFFYPISTYTESFQYFVMQNYSKAKNVEEFAHLGGYNTTTFRRLFRNLYGVPVYEWMLEKKREGILEDLQHSNMRITEICNRYGFDSLSHLAHFCKDSFGDTPRALRKKAANGEKIGKITD
MTLDLDNMTQAEFDEVMAEIQLQSPNIFQLISDFVNKKVTSVEIDDLLNMKRAETGKALSPLQIQELQYMLEDFSPELIHEALKEAVSQGKANFAYIKVILNRWKQDNLLTVELVRNSRAAREAKKQQTNQLEPTSYEDWIPTQEKPF
MLNGSCLCGRVAYTVDGPLADVVNCHCAMCRKAHGAAFRTRATVRAEHFAFVRGESDITWYSSSPGNYRGFCSACGTPLLSRFDQTPDVYALPLGALDDDPGVKAACHVYVAHKAPWHDITDDLPRHPEGRPG
MCGRFAQSQTREDYLALLAEDIERDIPYDPEPIGRYNVAPGTKVLLLSERDEHLHLDPVFWGYAPGWWDKPPLINARVETAATSRMFKPLWQHGRAICFADGWFEWKKEGDKKQPFFIYRADGQPIFMAAIGSTPFERGDEAEGFLIVTAAADQGLVDIHDRRPLVLSPEAAREWMRQEISGKEASEIAASGCVPANQFSWHPVSRAVGNVKTRARSLEHHHHHH
MGSDKIHHHHHHVGCMKWDYGKMEPFRATGDGLFIMNEGNFQYGNATLSYYDPETKKVENEIFYRANAMKLGDVAQSMIVRDTIGWVVVNNSHVIFAISTNTFKEVGRITGLTSPRYIHFISDEKAYITQIWDYRIFIVNPKTYQITGYIECPDMTMETGSTEQMVQYGKYVYVNCWSYQNRILKIDTTTDKVVDQLTVGIQPTSLVMDKNFKMWTITDGGYKGSPYGYEEPSLYRIDAETFKIEKQFKFQLGDAPSEVQLNGAGDELYWINKDIWRMSVDEERVPVRPFLKYRDTKYYGLTVSPKNGDVYVADAIDYQQQGMIYRYTEDGELVDEFYVGIIPGAFCWK
MSPPSTIAYVLPPGFKFVPNDEEVIHCYLKPYSDGNTNVLLHVPIHLVNIYESNPQTLSEEFQKGNDKEWFIITERNKVDQGLSQTKRVGYGAKRQKRVDTNGGYWHATVAAQKINAGDGVVRNKRPLAYYVGKPSEGVKTDWLMQEYSLDHSSHNNDKDYTLCKIYLTPQATKMNKEVGEEKKKQKKGEAVVSVAPVEALEEQLPCNVEYHQPLAPLDSCQPQPHDLAYQQQQFCPGPLDSYQPQPHDMENQQPHNEKLKKEEDVEQLDLHQPDQGKGC
MGCAGSTQSQADGSVKKIRKPKPWKHTQPITKAELMKLREEFWDTAPHYGGRKEIWDALRAAAEADISLAQAIVDSAGVIVQNTDLTVCYDERGAKYELPKYVLSEPTNLEEEN
MAHHHHHHMDIGELPDDQFPGAQYIPDLHGLGRERQALSCKVHEMKIPGQVSPYHVPEGEESSERETLYDENGLPIRTNSNDQEGDKKLWSWTDDGKLKLLCSQPIIPVSVVQGILRRDKIILIPQVEVTDFVVPKIYNQNIKHDVPKLDIKVECSNVEIPNVKYVEKEIIIPIITGYTHKFIPKWDVHEVPRPVVKYIGEQKIVEVEVPEIKYIDKIVEREVVVDTVEKRVPKIIEIPKYVDEVKYVWKPIEKIVYIQKLVPKFDVNLECPPPLIVPYPVQTVKQIPPVMVRKDVKFPDCDYTDFNSPYGSLPIPREYVDYYTSRQKAQKGIFSNCCESNCKNGEDHHGGETYYDVSPSSAMGVSEESLQNELNICNSSNPFVNTSADSILNKGGPRQALDAACM
RRRFDEKRREMLMGKLEEINQKRIAEALESEKKSLEKVSRSDQLRIDLITNVSHDLKTPLTSMVGYIELIKKEELSDLVRDYVDVLSERAEKLKEMINSLFSLAKASSGNIELHPEKFELNRLVEQIFADMHDHVKESELQFVKQFTEENTEIISDNMYFYRICQNLIENALKYSAKHTRVFVKTYQKESSNHLCLEITNTAGYPMDFTKEEIIERFFRGDKQRSSEGNGLGLAIVSTYVKALGGEFDIKIDCDQFKACVEMPLSAITIT
SLIKFLSALILLLVTTAAQAERIRDLTSVQGVRQNSLIGYGLVVGLDGTGDQTTQTPFTTQTLNNMLSQLGITVPTGTNMQLKNVAAVMVTASLPPFGRQGQTIDVVVSSMGNAKSLRGGTLLMTPLKGVDSQVYALAQGNILVGGAGASAGGSSVQVNQLNGGRITNGAVIERELPSQFGVGNTLNLQLNDEDFSMAQQIADTINRVRGYGSATALDARTIQVRVPSGNSSQVRFLADIQNMQVNVTPQDAKVVINSRTGSVVMNREVTLDSCAIAQGNLSVTVNRQANVSQPDTPFGGGQTVVTPQTQIDLRQSGGSLQSVRSSASLNNVVRALNALGATPMDLMSILQSMQSAGCLRAKLEII

Soluble on expression in E. coli, soluble:
MEFKVTLTTEEIVRGLKHYRRIAKQDVLRAPETPNPEVFRRHAEARREVYAKLAEVAEREGPEAAVAYALELYRSLPFVTGTPEDQYPEIKGQENALENFFLMIGLDPKVRREARKARKPLQ
AIASERLYYFVIVGRDDRVLYDLLYPASLSELDWRTSSELSSPAERGDFEPHHFIPSIQVLLQFVAYSALDHIEEKYWLTSARSLKHIFRFRDWSASVQLTPNAATRFVLVHGASDDASRNVRAFLHAVYEAYVPHVVCNPFQEEDAPITSKRFHEVAKNLAKRYFSG
MAYSLTRKLLKDWKYFMRHPEKTQGLFHVRPHDSDLHLWHVVMYEPRTSLEVYLLLYIGGNDQDPYIIMKCLSPNCCFPINRTVSMTHLNYLLLKDLGLQDLLFHIWQPLFHIQATEDLQYSPSTVKFNRAWNRIIYKDFKSYFPELIGTLQPGDYSIVKSYSKNHNISNSNGGSVNEFMSSYNAQSHTFHAQDNSKNPYTNSSIGKSSMLSTLNNNNVNKRTHDYNAIDFMTKNLLACDDDSIHPVVSSKRSRTLACPDETNDNRGSEHYTKRKKI
MGKKPISILLMGTDTGALGRSYKGRTDSMMVVTINPKTKKTTITSIPRDLGVTIPGYESKSPSKINAAYAFGQAGTAIKTVQQVFNVPIDFYVLVNMGGMEKVVDEAGGVDITPTLSFTYDGYTFTKGVKTHMNGKKALAYSRMRYDDPQNDYGRQTRQRAVLTAIISKSSSVSSLLNKDFIDSISNETKTDFTFNDLVDLAKNYRSSTGSIEETHAQGDGQMVNGQSMEIVSNTELQRVTNFIRNGLSLEHEKTGTAALSASSANTSDSSVEAANINAGNLEHHHHHH
MMHYDGMYYINEEEVRSNLTMKDTIDAIREAFEEYRAGRASSNTRVRTFSEGSVLNTMPASMEKYHILGHKTYSASRNGARFVVTLFDSRNNDLIAIVEANRLGQMRTGAVTAYATSILHPHVENFTIIGSGFQAETQLEGMITVSHPQSIRVYSRNYDHAKDFASRMSKQFGVDIRPVDNAEAALSDADTVSSITNSTSPVILRKYLGDEYHVNLAGSNYMNRREAEYEVLHDADLVVTEHYDQSMVESAEISEYVKFGGKPVELREIAGRYGEFSGLRRTVFKSMGIGLEDIATAYRVLRNLGIA

Source: the DeepSol protein solubility set
